Results taken from patent US20120164670.

Experiments:
[1] = biological target: DBC1, Q8N163
[2] = biological target: Fleur de Lys peptide (BIOMOL)
[3] = biological target: T1, H3K9ac substrate (TARK(ac)STG)
T1 chain: TARKSTG

DBC1, Q8N163, sequence (Q8N163 whole entry, looked up): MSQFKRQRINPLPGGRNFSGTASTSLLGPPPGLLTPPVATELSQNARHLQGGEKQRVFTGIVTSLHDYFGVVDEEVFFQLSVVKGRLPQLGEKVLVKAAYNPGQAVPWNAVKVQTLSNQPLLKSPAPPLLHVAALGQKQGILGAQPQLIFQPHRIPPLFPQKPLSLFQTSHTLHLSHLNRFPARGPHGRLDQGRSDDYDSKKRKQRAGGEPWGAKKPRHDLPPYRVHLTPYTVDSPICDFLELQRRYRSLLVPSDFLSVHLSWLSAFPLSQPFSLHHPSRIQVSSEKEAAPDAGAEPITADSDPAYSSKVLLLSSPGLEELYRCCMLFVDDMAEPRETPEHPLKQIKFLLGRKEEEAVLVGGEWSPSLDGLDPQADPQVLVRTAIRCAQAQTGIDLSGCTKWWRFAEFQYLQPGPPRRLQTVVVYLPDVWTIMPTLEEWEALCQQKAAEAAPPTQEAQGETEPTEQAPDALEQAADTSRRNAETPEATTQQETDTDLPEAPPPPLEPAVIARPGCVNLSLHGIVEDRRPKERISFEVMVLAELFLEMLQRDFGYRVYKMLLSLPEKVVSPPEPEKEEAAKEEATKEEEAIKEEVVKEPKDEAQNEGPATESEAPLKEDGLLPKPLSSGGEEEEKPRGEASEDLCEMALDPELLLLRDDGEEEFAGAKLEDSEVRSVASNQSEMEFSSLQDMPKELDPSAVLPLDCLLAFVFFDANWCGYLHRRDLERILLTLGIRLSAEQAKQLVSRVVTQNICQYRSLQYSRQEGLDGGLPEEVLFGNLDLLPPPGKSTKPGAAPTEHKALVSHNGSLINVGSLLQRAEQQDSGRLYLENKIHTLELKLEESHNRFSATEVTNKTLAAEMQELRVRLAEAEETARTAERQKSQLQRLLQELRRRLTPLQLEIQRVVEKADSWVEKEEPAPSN

B1: full-length human SIRT1 enzyme (protein)
chain: ADEAALALQPGGSPSAAGADREAASSPAGEPLRKRPRRDGPGLERSPGEPGGAAPEREVPAAARGCPGAAAAALWREAEAEAAAAGGEQEAQATAAAGEGDNGPGLQGPSREPPLADNLYDEDDDDEGEEEEEAAAAAIGYRDNLLFGDEIITNGFHSCESDEEDRASHASSSDWTPRPRIGPYTFVQQHLMIGTDPRTILKDLLPETIPPPELDDMTLWQIVINILSEPPKRKKRKDINTIEDAVKLLQECKKIIVLTGAGVSVSCGIPDFRSRDGIYARLAVDFPDLPDPQAMFDIEYFRKDPRPFFKFAKEIYPGQFQPSLCHKFIALSDKEGKLLRNYTQNIDTLEQVAGIQRIIQCHGSFATASCLICKYKVDCEAVRGDIFNQVVPRCPRCPADEPLAIMKPEIVFFGENLPEQFHRAMKYDKDEVDLLIVIGSSLKVRPVALIPSSIPHEVPQILINREPLPHLHFDVELLGDCDVIINELCHRLGGEYAKLCCNPVKLSEITEKPPRTQKELAYLSELPPTPLHVSEDSSSPERTSPPDSSVIVTLLDQAAKSNDDLDVSESKGCMEEKPQEVQTSRNVESIAEQMENPDLKNVGSSTGEKNERTSVAGTVRKCWPNRVAKEQISRRLDGNQYLFLPPNRYIFHGAEVYSDSEDDVLSSSSCGSNSDSGTCQSPSLEEPMEDESEIEEFYNGLEDEPDVPERAGGAGFGTDGDDQEAINEAISVKQEVTDMNYPSNKS
- SIRT1 activity (PNC1-OPT assay, dose titration of DBC1, H3K9-L peptide substrate) [1]: DBC1 concentration inversely correlates with SIRT1 activity
- Km (PNC1-OPT nicotinamide assay, SIRT1 deacetylation) [2]: ˜130.2 uM
- Km (stated in the kit protocol for the SIRT1 deacetylation reaction) [3]: final concentration=50 uM (Km)
